The values below come from patent US20250361322A1 (ICONIC THERAPEUTICS, published 2025).

Experiment [1] has as its target T1, human Tissue Factor on human TF-positive cells (human, UniProt P13726 33-295).
T1 construct: also called hTF; CD142
The experiment in a line: competition flow cytometry on MDA-MB-231 cells: unlabeled antibody titration first, then 20 nM 39A-Alexa488 as the competitor.
Protocol: After another 1 hr incubation on ice, cells were washed, stained with a viability dye, and analyzed by flow cytometry. The Alexa488 fluorescence data from viable cells was summarized using median fluorescence intensity.

For experiment [2], the target named is T2, rTF (rat TF) construct on HEK293 cells (rat, UniProt P42533 29-252).
T2 construct: not shown: transmembrane/cytoplasmic anchor of the cell-surface construct
T2 sequence (P42533 29-252 limits assumed): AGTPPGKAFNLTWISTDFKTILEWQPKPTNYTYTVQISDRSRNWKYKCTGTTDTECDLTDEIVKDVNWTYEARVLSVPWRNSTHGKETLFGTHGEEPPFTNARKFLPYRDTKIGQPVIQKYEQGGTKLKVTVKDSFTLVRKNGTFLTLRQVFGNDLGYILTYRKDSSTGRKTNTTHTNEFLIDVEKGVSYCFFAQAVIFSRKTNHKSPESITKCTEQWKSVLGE
The experiment in a line: live cell staining, HEK293 cells.

Experiment [3] concerns the target T1, human Tissue Factor on human …. The experiment in a line: competition flow cytometry on MDA-MB-231 cells: antibody titration first, then 20 nM FVII-Fc-Alexa488 as the blocked ligand.

B1: TF-011 (antibody, V domains shown)
VH: EVQLLESGGGLVQPGGSLRLSCAASGFTFSNYAMSWVRQAPGKGLEWVSSISGSGDYTYYTDSVKGRFTISRDNSKNTLYLQMNSLRAEDTAVYYCARSPWGYYLDSWGQGTLVTVSS
VL: DIQMTQSPPSLSASAGDRVTITCRASQGISSRLAWYQQKPEKAPKSLIYAASSLQSGVPSRFSGSGSGTDFTLTISSLQPEDFATYYCQQYNSYPYTFGQGTKLEIK
notes: Previously described anti-TF antibody; also called tisotumab
On to B1, for which the IC50 in experiment [1] came out at 0.61 nM; in experiment [3], 1.01 nM. The binding result in experiment [2] is recorded as “no binding”.
